Source: patent publication US10456465B2, “Compositions, kits, and methods for the diagnosis prognosis, monitoring, treatment and modulation of post-transplant lymphoproliferative disorders and hypoxia associated angiogenesis disorders using galectin-1” (Dana-Farber Cancer Institute, Inc., priority 2009, dated 2019)

Experiments:
[1] = molecular target: T1, Gal1 (Homo sapiens, UniProt P09382); assay: Binding of 488-Gal1 to HUVEC
T1 construct: made in house
Method: For glycophenotyping, ECs were incubated with biotinylated L-PHA, LEL, SNA, MAL II, PNA and HPA (all from Vector). Recombinant Gal1 was purified as described in Ilarregui et al. (2009) Nat Immunol 10, 981-991. For binding assays, ECs were incubated for 1 h at 4° C. with dyLight 488-labeled galectins in the absence or presence of lactose, sucrose, anti-Gal1 or isotype control mAb or following transfection with GnT5, GCNT1 or scrambled siRNA. Cells were analyzed on a FACSAria (BD Biosciences). For segregation, ECs were treated with Gal1 for 1 h, fixed and incubated for 1 h with anti-human VEGFR2 antibody (55B11; Cell Signaling) as described in Ilarregui et al. (2009) Nat Immunol 10, 981-991. Cells were analyzed on a Nikon laser confocal microscope (Eclipse E800).
DyLight 488-conjugated Gal1 (488-Gal1) was obtained using DyLight labeling kit (Thermo Scientific). Inhibitors of Jak2-STAT3 (AG490; 5 μM), Jnk-SAP (SP600125; 20 μM), p38 (SB202190; 10 μM), HIF-1α (3 μM) and O-glycosylation (benzyl-α-Ga1NAc; 2 mM) were from Calbiochem. Inhibitors of Erk1/2 (U0126; 5 μM), PI(3)K-Akt (Ly294002; 2 μM) and NF-κB (BAY 11-7082; 1 μM), ROS (N-acetyl-cysteine; NAC), N-glycosylation (swainsonine; 3 μM), lactose or sucrose (30 mM) were from Sigma. PNGase F (25 U/μg protein) was from New England Biolabs. Recombinant cytokines including IL-10 (50 ng/ml), IL-17 (5 ng/ml), TGF-β1 (3 ng/ml), IFN-γ (50 ng/ml), VEGF (20 ng/ml), bFGF (10 ng/ml) were from R&D. TNF (20 ng/ml) was from Sigma. Biotinylated lectins, including L-PHA (2 μg/ml), LEL (1 μg/ml), SNA (5 μg/ml), MAL II (10 μg/ml), PNA (10 μg/ml) and HPA (10 μg/ml) were purchased from Vector Labs and incubated in buffer containing 150 mM NaCl, 10 mM HEPES and 1% BSA (Sigma). ON-TARGETplus SMART siRNA pools against GnT5, GCNT1, VEGFR2, NRP-1, VEGF, HIF-1α and scrambled were obtained from Dharmacon. Transfections were performed by Lipofectamine-RNAiMAX (Invitrogen) following manufacturer's directions. Recombinant Gal3 and Gal8 were purified as described in Acosta-Rodriguez et al. (2004) J Immunol 172, 493-502 and Cardenas Delgado et al. (2010) FASEB J [Epub ahead of print].

[2] = test system: HUVEC; assay: HUVEC proliferation ([3H]thymidine incorporation); assay type: cell-based, human
Method: (§1) HUVEC transfected or not with specific siRNA or pre-incubated with signaling pathway inhibitors were exposed to VEGF or Gal1 with or without lactose, sucrose, 8F4F8G7 mAb or control isotype (IgG1κ) or specific antibodies for VEGFR1 (AP-MAB0702; Abcam), VEGFR2 (AF357; R&D), VEGFR3 (AB89501; Abcam) or VEGF (MAB293; R&D). Cells were processed for proliferation, migration, invasion and tube formation assays. Tumor-associated blood vessels were identified by flow cytometry using Alexa Fluor 647-conjugated anti-CD34 antibody (RAM34; eBioscience).
For proliferation assays, HUVEC that were transfected or not with specific siRNA and cultured in complete M199 medium were trypsinized, harvested and seeded in 96-well microtiter plates (1×10^3 cells/well). Cells were pre-incubated for 1 hour at 37° C. with lactose, sucrose or signaling pathway inhibitors and then exposed to Gal1. After 24 hours, cells were incubated for an additional 24 hours in the presence of 0.8 μCi [^3H]-thymidine (NEN Dupont). Cells were then harvested and radioactivity was measured in a 1414 Liquid Scintillation Counter (Perkin Elmer).

[3] = test system: HUVEC; assay: HUVEC migration (transwell); assay type: cell-based, human
Method: as §1
(§2) The formation of capillary-like tubular structures was assessed in Matrigel-coated plates essentially as described in Albini et al. (2001), Cancer Res 61, 8171-8178. In brief, HUVEC (3×10^4 cells/ml) transfected or not with specific siRNA or pre-incubated with signaling pathway inhibitors were seeded on Matrigel with our without Gal1 (0.1 to 3 μM) or VEGF (20 ng/ml) with or without lactose, sucrose, 8F4F8G7 mAb (0.5 μM) or isotype control (IgG1K) or blocking antibodies specific for VEGFR1 (5 μg/ml), VEGFR2 (2 μg/ml), VEGFR3 (10 μg/ml) or VEGF (10 μg/ml). Cells were incubated at 37° C. for periods ranging from 0 to 24 h and were visualized by phase-contrast microscopy. In another set of experiments, conditioned medium from hypoxic or normoxic KS cells infected or not with a retroviral vector containing Gal1 shRNA was assessed on HUVEC transfected or not with GnT5, GCNT1 or scr siRNA (100 nM). Capillary-like tubular structures were scored by counting the number of tubules (closed areas) per well in a phase-contrast microscope (Nikon E-100). For migration assays, HUVEC (4×10^4/well) transfected or not with specific siRNA were resuspended in M199 medium supplemented with 1% FCS. Cells were placed into the top chamber of the insert while the bottom well was filled with Gal1 or VEGF in the absence or presence of lactose, sucrose, 8F4F8G7 mAb or isotype control. After 24 hours, inserts were stained with crystal violet (Sigma) and analyzed in an inverted microscope. For each filter, 4 images were collected and cells were counted with the ImageJ software v1.34 (NIH).

[4] = test system: HUVEC; assay: HUVEC capillary tube formation on Matrigel; assay type: cell-based, human
Method: as §1, §2

T1 sequence (P09382 whole entry): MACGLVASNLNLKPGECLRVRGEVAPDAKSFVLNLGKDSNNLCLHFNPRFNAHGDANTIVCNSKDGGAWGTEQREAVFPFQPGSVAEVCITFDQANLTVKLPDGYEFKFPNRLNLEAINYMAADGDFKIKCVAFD

For rGal1: recombinant human galectin-1, the “binding of fluorescently-labeled Gal1 to ECs” value ([1]; flow cytometry) was “bound to ECs in a dose- and carbohydrate-dependent fashion”, the EC proliferation ([2]; HUVEC treated with Gal1) was “elicited” and the EC migration ([3]; HUVEC treated with Gal1) was “elicited”. For the same molecule, the “formation of three-dimensional tubular networks” value ([4]; HUVEC treated with Gal1) was “at levels similar to those attained by VEGF”.

B1: anti-Gal1 monoclonal antibody 8F4F8G7 (antibody, V domains shown)
VH: EVQLQQSVAEFVRPGASVRLSCTASGFNIKNTYIHWVRQRPEQGLEWIGKIDPANGNTKYVPEFQGKATMTADTSSNTVYLHLSSLTSEDTAIYYCVDGYYGWYFAVWGTGTTVTVSS
VL: QAVVTQESALTTSPGETVTLTCRSSTGAVTTSNYANWVQEKPDHLFTGLIGATNNRAPGVPARFSGSLIGDKAVLTITGAQTEDEAIYFCALWYRNHFIFGSGTKVTVL
notes: Murine hybridoma mAb (deposit PTA-10535), lambda light chain; also called 14-19 8F4-F8-G7; clone 8F4.8F.67
With B1 the “effect on binding of Gal1 to ECs” value ([1]; lactose/sucrose 30 mM, swainsonine 3 μM, benzyl-α-GalNAc 2 mM, mAb 0.5 μM) was “prevented”, the “effect on Gal1-induced EC proliferation” value ([2]; induced by Gal1) was “prevent” and the “effect on Gal1-induced EC migration” value ([3]; induced by Gal1) was “prevent”. The “effect on EC migration in the absence of exogenous Gal1” value ([3]; no exogenous Gal1) was “did not alter”, the “effect on Gal1-induced capillary tube formation” value ([4]; induced by Gal1) was “prevent” and the “effect on tube formation in the absence of exogenous Gal1” value ([4]; no exogenous Gal1) was “did not alter”.
